Laboratory results reported in the MegaScale stability set (Tsuboyama et al. 2023).

B1: HHH_rd1_0493 (parent)
chain: RDEDEKEKIKEALKRGNEDKAKEIAKRANVSPEEYERLRKEAE

Variants of: B1
Assay: folding stability dG (cDNA display proteolysis); higher = more stable
Conditions: PBS, room temperature

Row | Variant | folding stability dG
1 | RDEDEKEKIKEAFKRGNEDKAKEIAKRANVSPEEYERLRKEAE | 2.85 kcal/mol
2 | RDEDEKEKIKEAMKRGNEDKAKEIAKRANVSPEEYERLRKEAE | 2.49 kcal/mol
3 | RDEDEKEKIKEAQKRGNEDKAKEIAKRANVSPEEYERLRKEAE | 0.615 kcal/mol
4 | RDEDEKEKIKEAPKRGNEDKAKEIAKRANVSPEEYERLRKEAE | 0.435 kcal/mol
5 | RDEDEKEKIKEADKRGNEDKAKEIAKRANVSPEEYERLRKEAE | 0.379 kcal/mol
6 | RDEDEKEKIKEACKRGNEDKAKEIAKRANVSPEEYERLRKEAE | 1.37 kcal/mol
7 | RDEDEKEKIKEAYKRGNEDKAKEIAKRANVSPEEYERLRKEAE | 0.88 kcal/mol
8 | RDEDEKEKIKEAIKRGNEDKAKEIAKRANVSPEEYERLRKEAE | 2.84 kcal/mol
9 | RDEDEKEKIKEANKRGNEDKAKEIAKRANVSPEEYERLRKEAE | 0.415 kcal/mol
10 | RDEDEKEKIKEAEKRGNEDKAKEIAKRANVSPEEYERLRKEAE | 0.376 kcal/mol
11 | RDEDEKEKIKEAAKRGNEDKAKEIAKRANVSPEEYERLRKEAE | 0.528 kcal/mol
12 | RDEDEKEKIKEAGKRGNEDKAKEIAKRANVSPEEYERLRKEAE | 0.235 kcal/mol
13 | RDEDEKEKIKEAVKRGNEDKAKEIAKRANVSPEEYERLRKEAE | 1.58 kcal/mol
14 | RDEDEKEKIKEASKRGNEDKAKEIAKRANVSPEEYERLRKEAE | 0.332 kcal/mol
15 | RDEDEKEKIKEARKRGNEDKAKEIAKRANVSPEEYERLRKEAE | 0.401 kcal/mol
16 | RDEDEKEKIKEAWKRGNEDKAKEIAKRANVSPEEYERLRKEAE | 1.14 kcal/mol
17 | RDEDEKEKIKEATKRGNEDKAKEIAKRANVSPEEYERLRKEAE | 0.471 kcal/mol
18 | RDEDEKEKIKEAHKRGNEDKAKEIAKRANVSPEEYERLRKEAE | 0.865 kcal/mol
19 | RDEDEKEKIKEAKKRGNEDKAKEIAKRANVSPEEYERLRKEAE | 0.273 kcal/mol
20 | RDEDEKEKIKEDLKRGNEDKAKEIAKRANVSPEEYERLRKEAE | 0.746 kcal/mol
21 | RDEDEKEKIKELLKRGNEDKAKEIAKRANVSPEEYERLRKEAE | 3.02 kcal/mol
22 | RDEDEKEKIKEFLKRGNEDKAKEIAKRANVSPEEYERLRKEAE | 2.87 kcal/mol
23 | RDEDEKEKIKEPLKRGNEDKAKEIAKRANVSPEEYERLRKEAE | 0.229 kcal/mol
24 | RDEDEKEKIKEILKRGNEDKAKEIAKRANVSPEEYERLRKEAE | 1.24 kcal/mol

Row | Variant | folding stability dG
25 | RDEDEKEKIKEYLKRGNEDKAKEIAKRANVSPEEYERLRKEAE | 2.88 kcal/mol
26 | RDEDEKEKIKEGLKRGNEDKAKEIAKRANVSPEEYERLRKEAE | 0.656 kcal/mol
27 | RDEDEKEKIKEELKRGNEDKAKEIAKRANVSPEEYERLRKEAE | 2.85 kcal/mol
28 | RDEDEKEKIKEVLKRGNEDKAKEIAKRANVSPEEYERLRKEAE | 1.06 kcal/mol
29 | RDEDEKEKIKESLKRGNEDKAKEIAKRANVSPEEYERLRKEAE | 2.15 kcal/mol
30 | RDEDEKEKIKECLKRGNEDKAKEIAKRANVSPEEYERLRKEAE | 1.94 kcal/mol
31 | RDEDEKEKIKEHLKRGNEDKAKEIAKRANVSPEEYERLRKEAE | 2.85 kcal/mol
32 | RDEDEKEKIKEMLKRGNEDKAKEIAKRANVSPEEYERLRKEAE | 2.86 kcal/mol
33 | RDEDEKEKIKETLKRGNEDKAKEIAKRANVSPEEYERLRKEAE | 1.43 kcal/mol
34 | RDEDEKEKIKENLKRGNEDKAKEIAKRANVSPEEYERLRKEAE | 2.1 kcal/mol
35 | RDEDEKEKIKEKLKRGNEDKAKEIAKRANVSPEEYERLRKEAE | 0.896 kcal/mol
36 | RDEDEKEKIKEQLKRGNEDKAKEIAKRANVSPEEYERLRKEAE | 2.69 kcal/mol
37 | RDEDEKEKIKEWLKRGNEDKAKEIAKRANVSPEEYERLRKEAE | 3.01 kcal/mol
38 | RDEDEKEKIKERLKRGNEDKAKEIAKRANVSPEEYERLRKEAE | 0.882 kcal/mol
39 | RDEDEKEKIKEALKRENEDKAKEIAKRANVSPEEYERLRKEAE | 1.19 kcal/mol
40 | RDEDEKEKIKEALKRCNEDKAKEIAKRANVSPEEYERLRKEAE | 1.76 kcal/mol
41 | RDEDEKEKIKEALKRFNEDKAKEIAKRANVSPEEYERLRKEAE | 1.55 kcal/mol
42 | RDEDEKEKIKEALKRINEDKAKEIAKRANVSPEEYERLRKEAE | 0.476 kcal/mol
43 | RDEDEKEKIKEALKRANEDKAKEIAKRANVSPEEYERLRKEAE | 1.67 kcal/mol
44 | RDEDEKEKIKEALKRHNEDKAKEIAKRANVSPEEYERLRKEAE | 2.04 kcal/mol
45 | RDEDEKEKIKEALKRDNEDKAKEIAKRANVSPEEYERLRKEAE | 1.47 kcal/mol
46 | RDEDEKEKIKHALKRGNEDKAKEIAKRANVSPEEYERLRKEAE | 2.38 kcal/mol
47 | RDEDEKEKIKLALKRGNEDKAKEIAKRANVSPEEYERLRKEAE | 2.71 kcal/mol
48 | RDEDEKEKIKWALKRGNEDKAKEIAKRANVSPEEYERLRKEAE | 1.91 kcal/mol

Row | Variant | folding stability dG
49 | RDEDEKEKIKNALKRGNEDKAKEIAKRANVSPEEYERLRKEAE | 2.88 kcal/mol
50 | RDEDEKEKIKFALKRGNEDKAKEIAKRANVSPEEYERLRKEAE | 1.56 kcal/mol
51 | RDEDEKEKIKGALKRGNEDKAKEIAKRANVSPEEYERLRKEAE | 2.34 kcal/mol
52 | RDEDEKEKIKAALKRGNEDKAKEIAKRANVSPEEYERLRKEAE | 2.82 kcal/mol
53 | RDEDEKEKIKIALKRGNEDKAKEIAKRANVSPEEYERLRKEAE | 2.42 kcal/mol
54 | RDEDEKEKIKQALKRGNEDKAKEIAKRANVSPEEYERLRKEAE | 2.83 kcal/mol
55 | RDEDEKEKIKRALKRGNEDKAKEIAKRANVSPEEYERLRKEAE | 2.54 kcal/mol
56 | RDEDEKEKIKKALKRGNEDKAKEIAKRANVSPEEYERLRKEAE | 2.24 kcal/mol
57 | RDEDEKEKIKYALKRGNEDKAKEIAKRANVSPEEYERLRKEAE | 1.67 kcal/mol
58 | RDEDEKEKIKSALKRGNEDKAKEIAKRANVSPEEYERLRKEAE | 2.58 kcal/mol
59 | RDEDEKEKIKPALKRGNEDKAKEIAKRANVSPEEYERLRKEAE | 0.82 kcal/mol
60 | RDEDEKEKIKDALKRGNEDKAKEIAKRANVSPEEYERLRKEAE | 2.96 kcal/mol
61 | RDEDEKEKIKVALKRGNEDKAKEIAKRANVSPEEYERLRKEAE | 2.04 kcal/mol
62 | RDEDEKEKIKCALKRGNEDKAKEIAKRANVSPEEYERLRKEAE | 2.99 kcal/mol
63 | RDEDEKEKIKMALKRGNEDKAKEIAKRANVSPEEYERLRKEAE | 2.67 kcal/mol
64 | RDEDEKEKIKTALKRGNEDKAKEIAKRANVSPEEYERLRKEAE | 2.29 kcal/mol
65 | RDEDEKEKIEEALKRGNEDKAKEIAKRANVSPEEYERLRKEAE | 0.847 kcal/mol
66 | RDEDEKEKIPEALKRGNEDKAKEIAKRANVSPEEYERLRKEAE | 0.064 kcal/mol
67 | RDEDEKEKIHEALKRGNEDKAKEIAKRANVSPEEYERLRKEAE | 0.938 kcal/mol
68 | RDEDEKEKIREALKRGNEDKAKEIAKRANVSPEEYERLRKEAE | 2.49 kcal/mol
69 | RDEDEKEKIWEALKRGNEDKAKEIAKRANVSPEEYERLRKEAE | 1.57 kcal/mol
70 | RDEDEKEKISEALKRGNEDKAKEIAKRANVSPEEYERLRKEAE | 1.27 kcal/mol
71 | RDEDEKEKIYEALKRGNEDKAKEIAKRANVSPEEYERLRKEAE | 2.01 kcal/mol
72 | RDEDEKEKIGEALKRGNEDKAKEIAKRANVSPEEYERLRKEAE | 0.528 kcal/mol

Row | Variant | folding stability dG
73 | RDEDEKEKIMEALKRGNEDKAKEIAKRANVSPEEYERLRKEAE | 2.02 kcal/mol
74 | RDEDEKEKIFEALKRGNEDKAKEIAKRANVSPEEYERLRKEAE | 2.11 kcal/mol
75 | RDEDEKEKIIEALKRGNEDKAKEIAKRANVSPEEYERLRKEAE | 2.8 kcal/mol
76 | RDEDEKEKIVEALKRGNEDKAKEIAKRANVSPEEYERLRKEAE | 2.28 kcal/mol
77 | RDEDEKEKILEALKRGNEDKAKEIAKRANVSPEEYERLRKEAE | 2.79 kcal/mol
78 | RDEDEKEKITEALKRGNEDKAKEIAKRANVSPEEYERLRKEAE | 1.7 kcal/mol
79 | RDEDEKEKINEALKRGNEDKAKEIAKRANVSPEEYERLRKEAE | 0.92 kcal/mol
80 | RDEDEKEKIQEALKRGNEDKAKEIAKRANVSPEEYERLRKEAE | 0.854 kcal/mol
81 | RDEDEKEKIKEALKLGNEDKAKEIAKRANVSPEEYERLRKEAE | 3.09 kcal/mol
82 | RDEDEKEKIKEALKSGNEDKAKEIAKRANVSPEEYERLRKEAE | 3.1 kcal/mol
83 | RDEDEKEKIKEALKEGNEDKAKEIAKRANVSPEEYERLRKEAE | 3.24 kcal/mol
84 | RDEDEKEKIKEALKWGNEDKAKEIAKRANVSPEEYERLRKEAE | 2.81 kcal/mol
85 | RDEDEKEKIKEALKAGNEDKAKEIAKRANVSPEEYERLRKEAE | 3.36 kcal/mol
86 | RDEDEKEKIKEALKTGNEDKAKEIAKRANVSPEEYERLRKEAE | 2.81 kcal/mol
87 | RDEDEKEKIKEALKYGNEDKAKEIAKRANVSPEEYERLRKEAE | 2.69 kcal/mol
88 | RDEDEKEKIKEALKDGNEDKAKEIAKRANVSPEEYERLRKEAE | 2.85 kcal/mol
89 | RDEDEKEKIKEALKHGNEDKAKEIAKRANVSPEEYERLRKEAE | 3 kcal/mol
90 | RDEDEKEKIKEALKQGNEDKAKEIAKRANVSPEEYERLRKEAE | 3.39 kcal/mol
91 | RDEDEKEKIKEALKGGNEDKAKEIAKRANVSPEEYERLRKEAE | 2.71 kcal/mol
92 | RDEDEKEKIKEALKPGNEDKAKEIAKRANVSPEEYERLRKEAE | 0.627 kcal/mol
93 | RDEDEKEKIKEALKMGNEDKAKEIAKRANVSPEEYERLRKEAE | 3.21 kcal/mol
94 | RDEDEKEKIKEALKKGNEDKAKEIAKRANVSPEEYERLRKEAE | 2.91 kcal/mol
95 | RDEDEKEKIKEALKIGNEDKAKEIAKRANVSPEEYERLRKEAE | 2.77 kcal/mol
96 | RDEDEKEKIKEALKFGNEDKAKEIAKRANVSPEEYERLRKEAE | 2.62 kcal/mol

Row | Variant | folding stability dG
97 | RDEDEKEKIKEALKVGNEDKAKEIAKRANVSPEEYERLRKEAE | 2.83 kcal/mol
98 | RDEDEKEKIKEALKNGNEDKAKEIAKRANVSPEEYERLRKEAE | 3.17 kcal/mol
99 | RDEDEKEKIKEALKCGNEDKAKEIAKRANVSPEEYERLRKEAE | 2.31 kcal/mol
100 | RDEDEKEKIKEALWRGNEDKAKEIAKRANVSPEEYERLRKEAE | 1.9 kcal/mol
101 | RDEDEKEKIKEALDRGNEDKAKEIAKRANVSPEEYERLRKEAE | 1.1 kcal/mol
102 | RDEDEKEKIKEALFRGNEDKAKEIAKRANVSPEEYERLRKEAE | 1.8 kcal/mol
103 | RDEDEKEKIKEALCRGNEDKAKEIAKRANVSPEEYERLRKEAE | 2.24 kcal/mol
104 | RDEDEKEKIKEALPRGNEDKAKEIAKRANVSPEEYERLRKEAE | 0.417 kcal/mol
105 | RDEDEKEKIKEALQRGNEDKAKEIAKRANVSPEEYERLRKEAE | 2.3 kcal/mol
106 | RDEDEKEKIKEALYRGNEDKAKEIAKRANVSPEEYERLRKEAE | 1.97 kcal/mol
107 | RDEDEKEKIKEALERGNEDKAKEIAKRANVSPEEYERLRKEAE | 1.75 kcal/mol
108 | RDEDEKEKIKEALTRGNEDKAKEIAKRANVSPEEYERLRKEAE | 2.07 kcal/mol
109 | RDEDEKEKIKEALNRGNEDKAKEIAKRANVSPEEYERLRKEAE | 1.81 kcal/mol
110 | RDEDEKEKIKEALVRGNEDKAKEIAKRANVSPEEYERLRKEAE | 2.33 kcal/mol
111 | RDEDEKEKIKEALSRGNEDKAKEIAKRANVSPEEYERLRKEAE | 2.36 kcal/mol
112 | RDEDEKEKIKEALLRGNEDKAKEIAKRANVSPEEYERLRKEAE | 2.67 kcal/mol
113 | RDEDEKEKIKEALMRGNEDKAKEIAKRANVSPEEYERLRKEAE | 2.79 kcal/mol
114 | RDEDEKEKIKEALARGNEDKAKEIAKRANVSPEEYERLRKEAE | 2.53 kcal/mol
115 | RDEDEKEKIKEALGRGNEDKAKEIAKRANVSPEEYERLRKEAE | 1.98 kcal/mol
116 | RDEDEKEKIKEALHRGNEDKAKEIAKRANVSPEEYERLRKEAE | 2.28 kcal/mol
117 | RDEDEKEKIKEALIRGNEDKAKEIAKRANVSPEEYERLRKEAE | 2.67 kcal/mol
118 | RDEDEKEKIKEALRRGNEDKAKEIAKRANVSPEEYERLRKEAE | 3.32 kcal/mol
